Molecular target: T1, NF1 GAP-related domain (GRD) (UniProt P21359)
T1 sequence: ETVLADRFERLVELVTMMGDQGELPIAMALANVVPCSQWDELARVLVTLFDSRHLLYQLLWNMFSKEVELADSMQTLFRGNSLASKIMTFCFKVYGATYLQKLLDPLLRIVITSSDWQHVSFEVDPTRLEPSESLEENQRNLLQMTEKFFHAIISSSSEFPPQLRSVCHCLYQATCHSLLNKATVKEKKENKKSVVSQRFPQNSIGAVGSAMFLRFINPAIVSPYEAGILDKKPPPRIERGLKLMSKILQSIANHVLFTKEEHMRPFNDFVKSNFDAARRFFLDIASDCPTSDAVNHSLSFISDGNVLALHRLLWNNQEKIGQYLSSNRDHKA

purified KRAS^WT loaded with GTP
GTP hydrolysis by KRAS^WT: conventional RAS-GAPs (such as NF1), which potently enhance hydrolysis by KRAS^WT (FIG. 3B: NF1>>RGS3)

From patent US20240219403
